Measurements as given in US20230030674A1 (SOTIO BIOTECH A S, published 2023).

What was measured:
huCLDN18.2 [1] = target: T1, huCLDN18.2 (human, UniProt P56856-2 1-261); assay: flow cytometry titration on PA-TU-8988S-High cells (endogenous CLDN18.2)
T1 construct: whole, on cells; Full-length huCLDN18.2 stably overexpressed in HEK293T cells (pPB-Puro-huCldn18.2); also called human CLDN18.2
Method: (§1) A PE-coupled secondary anti-human IgG antibody was added to the cells for additional 30 min at 4° C. after washes with the FACS buffer, followed by further washes with FC buffer. The cells were then resuspended in 100 μl FC buffer and measured with a FACSCalibur™ cell analyzer (BD Biosciences, USA).

huCLDN18.2 [2] = target: T1, huCLDN18.2; assay: flow cytometry titration on HEK293T cells overexpressing CLDN18.2
Method: as §1

Row | Binder | EC50 (huCLDN18.2 [1]) [µg/mL] | Max MFI (huCLDN18.2 [1]) [MFI] | EC50 (huCLDN18.2 [2]) [µg/mL] | Max MFI (huCLDN18.2 [2]) [MFI]
1 | hGBA-1 (antibody, human IgG1, kappa, V domains shown, Humanized IgG1; X and chain(s) not specified, so tags not built in) VH: EVQLVQSGAEVKKPGESLKISCKGSGYSFTSYWIGWVRQMPGKGLEWMGNIYPGASDTRYAPSFQGQVTISADKSISTAYLQWSSLKASDTAMYYCARLWRGNSFDYWGQGTLVTVSS VL: not shown | 0.444 | 2530 | 0.259 | 3030
2 | hGBA-4 (antibody, human IgG1, kappa, V domains shown, Humanized IgG1; X and chain(s) not specified, so tags not built in) VH: EVQLVQSGAEVKKPGESLKISCKGSGYSFTSYWIGWVRQMPGKGLEWMGIIYPGDAYTRYSPSFQGQVTISADKSISTAYLQWSSLKASDTAMYYCTRLWRGNSFDAWGQGTLVTVSS VL: DIVMTQSPDSLAVSLGERATINCKSSQSLLNSGNQKNYLTWYQQKPGQPPKLLIYWASTRESGVPDRFSGSGSGTDFTLTISSLQAEDVAVYYCQNDYSYPLTFGQGTKVEIKR | 0.412 | 2010 | 0.357 | 2790
3 | hGBA-2 (antibody, human IgG1, kappa, V domains shown, Humanized IgG1; X and chain(s) not specified, so tags not built in) VH: EVQLVQSGAEVKKPGESLKISCKGSGYSFTSYWIGWVRQMPGKGLEWMGNIYPGDADTRYAPSFQGQVTISADKSISTAYLQWSSLKASDTAMYYCARMWRGNSFDYWGQGTLVTVSS VL: not shown | 0.584 | 2400 | 0.249 | 2970
4 | hGBA-3 (antibody, human IgG1, kappa, V domains shown, Humanized IgG1; X and chain(s) not specified, so tags not built in) VH: EVQLVQSGAEVKKPGESLKISCKGSGYSFTSYWIGWVRQMPGKGLEWMGIIYPGASDTNYAPSFQGQVTISADKSISTAYLQWSSLKASDTAMYYCARIWRGNSFDYWGQGTLVTVSS VL: DIVMTQSPDSLAVSLGERATINCKSSQSLLNSGNQKNYLAWYQQKPGQPPKLLIYWASTRESGVPDRFSGSGSGTDFTLTISSLQAEDVAVYYCQNDYSYPLTFGQGTKVEIKR | 0.352 | 2160 | 0.273 | 2750
5 | IMAB362 (antibody, human IgG1, kappa, V domains shown, X and which chain(s) are not specified, so the tags are not built in; also called Claudiximab; Zolbetuximab) VH: QVQLQQPGAELVRPGASVKLSCKASGYTFTSYWINWVKQRPGQGLEWIGNIYPSDSYTNYNQKFKDKATLTVDKSSSTAYMQLSSPTSEDSAVYYCTRSWRGNSFDYWGQGTTLTVSS VL: DIVMTQSPSSLTVTAGEKVTMSCKSSQSLLNSGNQKNYLTWYQQKPGQPPKLLIYWASTRESGVPDRFTGSGSGTDFTLTISSVQAEDLAVYYCQNDYSYPFTFGSGTKLEIKR | 0.508 | 1050 | 0.388 | 1970

Other lines, results leading:

Row | EC50 (huCLDN18.2 [1]) [µg/mL] | Max MFI (huCLDN18.2 [1]) [MFI] | EC50 (huCLDN18.2 [2]) [µg/mL] | Max MFI (huCLDN18.2 [2]) [MFI] | Binder
6 | 0.159 | 2560 | 0.305 | 3320 | hGBA-5 (antibody, human IgG1, kappa, V domains shown, Humanized IgG1; X and chain(s) not specified, so tags not built in) VH: EVQLVQSGAEVKKPGESLKISCKGSGYSFTSYWIGWVRQMPGKGLEWMGIIYPGAAYTRYAPSFQGQVTISADKSISTAYLQWSSLKASDTAMYYCARLWRGNSFDYWGQGTLVTVSS VL: not shown
7 | 0.323 | 2320 | 0.42 | 3250 | hGBA-7 (antibody, human IgG1, kappa, V domains shown, Humanized IgG1; X and chain(s) not specified, so tags not built in) VH: EVQLVQSGAEVKKPGESLKISCKGSGYSFTSYWIGWVRQMPGKGLEWMGNIYPGEAYTRYSPSFQGQVTISADKSISTAYLQWSSLKASDTAMYYCTRLWRGNSFDYWGQGTLVTVSS VL: not shown
8 | 0.191 | 2240 | 0.257 | 2890 | hGBA-6 (antibody, human IgG1, kappa, V domains shown, Humanized IgG1; X and chain(s) not specified, so tags not built in) VH: EVQLVQSGAEVKKPGESLKISCKGSGYTFTSYWIGWVRQMPGKGLEWMGNIYPGASYTRYSPSFQGQVTISADKSISTAYLQWSSLKASDTAMYYCTRQWRGNSFDYWGQGTLVTVSS VL: not shown
9 | 0.286 | 2440 | 0.241 | 3120 | hGBA-9 (antibody, human IgG1, kappa, V domains shown, Humanized IgG1; X and chain(s) not specified, so tags not built in) VH: EVQLVQSGAEVKKPGESLKISCKGSGYTFTSYWIGWVRQMPGKGLEWMGIIYPSAAYTRYAPSFQGQVTISADKSISTAYLQWSSLKASDTAMYYCTRMWRGNSFDYWGQGTLVTVSS VL: not shown
10 | 0.303 | 2370 | 0.187 | 2700 | hGBA-8 (antibody, human IgG1, kappa, V domains shown, Humanized IgG1; X and chain(s) not specified, so tags not built in) VH: EVQLVQSGAEVKKPGESLKISCKGSGYSFTSYWIGWVRQMPGKGLEWMGNIYPSESYTNYAPSFQGQVTISADKSISTAYLQWSSLKASDTAMYYCTRLWRGNSFDYWGQGTLVTVSS VL: not shown
